Test results from the DeepSol protein solubility set.

assay: soluble on expression in E. coli; label from the status in PepcDB or PDB records

Row | Sequence | soluble on expression in E. coli
1 | PAVLELEGKKWRVENQENVSNLVIEDTELKQVAYIYKCVNTTLQIKGKINSITVDNCKKLGLVFDDVVGIVEIINSKDVKVQVMGKVPTISINKTDGCHAYLSKNSLDCEIVSAKSSEMNVLIPTEGGDFNEFPVPEQFKTLWNGQKLVTTVTEIAG | soluble
2 | PDDVSVLAANGEKAKLSGGFFASEKALTLPDGVNQVVFRYAPYFNQGNDRLSVESDVIVARFDTANAELTIEVPKYRNMRDAEENIKDLDWKLVDGSGKAVAVDQDKLIKPGMQIGRDYVREIEDYNR | not soluble
3 | PDIDGGILFLEDVGEQPYRIERMLNTLYLSGILKKQRAIVFGNFRMEKIRDVYDPSYDFSAVANHVSRTAKIPVLTGFPFGHIADKITFPLGAHARIRMNGNSGYSVAFEGYPTLDASALTLDTLLPPPDLPIFPESGVADISE | not soluble
4 | PDITATPAWDALARHHDQIGNTHLRQFFADDPGRGRELTVSVGDLYIDYSKHRVTRETLALLIDLARTAHLEERRDQMFAGVHINTSEDRAVLHTALRLPRDAELVVDGQDVVTDVHAVLDAMGAFTDRLRSGEWTGATGKRISTVVNIGIGGSDLGPVMVYQALRHYADAGISARFVSNVDPADLIATLADLDPATTLFIVASKTFSTLETLTNATAARRWLTDALGDAAVSRHFVAVSTNKRLVDDFGINTDNMFGFWDWVGGRYSVDSAIGLSLMTVIGRDAFADFLAGFHIIDRHFATAPLESNAPVLLGLIGLWYSNFFGAQSRTVLPYSNDLSRFPAYLQQLTMESNGKSTRADGSPVSADTGEIFWGEPGTNGQHAFYQLLHQGTRLVPADFIGFAQPLDDLPTAEGTGSMHDLLMSNFFAQTQVLAFGKTAEEIAADGTPAHVVAHKVMPGNRPSTSILASRLTPSVLGQLIALYEHQVFTEGVVWGIDSFDQWGVELGKTQAKALLPVITGAGSPPPQSDSSTDGLVRRYRTERGRAGLE | soluble
5 | PDVRRDKPVTGEQIEVFANKLGEQWKILAPYLEMKDSEIRQIECDSEDMKMRAKQLLVAWQDQEGVHATPENLINALNKSGLSDLAESLTNDNETNS | soluble
6 | PFSWRHYIVLSRQDLEEYGEEIIAHEYAHIMHKHFRDLLLAEICLLFQWFNPAMWLFRKELKTVHEFEADESVLKAGIDAKKYQLLLI | not soluble
7 | PFTYSIEATRNLATTERCIQDIRNAPVRNRSTQFQLAQQNMLAYTFGEVIPGFASAGINGMDYRDVIGRPVENAVTEGTHFFRDDFRVDSNAKAKVAGDIFEIVSSAVMWNCAARWNSLMVGEGWRSQPRYSRPTLSPSPRRQVAVLNLPRSFDWVSLLVPESQEVIEEFRAGLRKDGLGLPTSTPDLAVVVLPEEFQNDEMWREEIAGLTRPNQILLSGAYQRLQGRVQPGEISLAVAFKRSLRSDRLYQPLYEANVMQLLLEGKLGAPKVEFEVHTLAPEGTNAFVTYEAASLYGLAEGRSAVHRAIRELYVPPTAADLARRFFAFLNERMELVNG | soluble
8 | PGKGEGSPVGIAILGYGTVGSQVLRLLTENHNDFQHRAGGPLEIKGVAASSVEKHRGSLADQLGLLTDDARSLIARDDVDIVVEVIGGIDYPRELILEALHSGKSVVTANKALVAAHSEELAAAADEAGVDLYFEAAVAAAIPVLGPLRRSLAGDQIQSVAGIVNGTTNFILDAMDSTGASYDDMLAEATRLGYAEADPTADVEGHDAASKAAILASLAFHTRVTYADVYCEGISKITADDINAAKEAGFTIKLLAICERLNVDGVEKVSARVHPTLVPRNHPLASVDKSFNAIFVEAEAAGRLMFYGNGAGGNPTASAVLGDIVGAARNKVFGGRAPGESTYADLPIAPFGEVPTRFHIDMEVEDRVGVLADLAKTFSNHGISLRTVRQAEKDGHARLIVVTHTAKESELEATVEQIKNSDSVKKINSVIRLAG | soluble
9 | PITDERVYESIGHYGGETVKIVRIEKARDIPLGATVRNEMDSVIISRIVKGGAAEKSGLLHEGDEVLEINGIEIRGKDVNEVFDLLSDMHGTLTFVLIPS | soluble
10 | PKGSIIVSTRAPVGYVAIVDEDTTFNQGCKGLIPKSSEINTEFYCYYLLLIKRKLEQLSGGSTFKELPKKSLEELLIPLLPLPEQQKIAEILSTV | soluble
11 | PLGSQTTHELTIPNNLIGCIIGRQGANINEIRQMSGAQIKIANPVEGSSGRQVTITGSAASISLAQYLINARLSSEKGMGCS | soluble
12 | PLNEVVRLHGSSGTSGKPTVVAYTQKDLEHWSSIIARSIYMAGGRKGDLLHNAYGYGLFTGGLGLHGGSEKLGCVTVPISGGNTQRQITLIQDFKPRVICGTPSYIMNIGETMKKMGIDPASTSIQYAILGSEPWSEEMRKNLETMFNMKAMDIYGLSEVIGPGVGMEC | not soluble
13 | PMGDGTQVVFTTSLIPTEAIVQLDTKAPANSKQSPIFFISPIEGFASALEPLAKRLEVPAYGLQYTEAVPSDSLESAAKFFIKQLRTVQPKGPYKLAGYSFGCLLTYVMAGILEETNEVANVIMLDGAPSYVNWYTSSFKQRYTDGTNADNDNQSYGLAYFGIVLANIDYKALVRLLIVIPTWEEKLERFAELMSNEITQPVETIKKSATLFYKKLELADGYQPTLKLKTNVTLVKPTDNSAKLDEDYRLKEVCTKPVEVHTVEGNHRTFLIEDQSLKTIQSILKRL | soluble
14 | PNKFCPGCGHGIVNRIIAEVIEEHGYEKNHVLTLGVGCVCNMNFSWNGDKMQTAHGRASSTAIGVKVALPDTLVMTYQGDGDAYVIGLSETLNTAYRNHNVTVFVINNNNFAMTGGQMSWTTMPGQVTTTSVNGRDIKTTGSPLKVPEMVANFFDVAYVARGSVHSPKEIINLKKYIKNAIEAQLNGEGYSLVEILAPCPTNWGVSLEKSIKWMEEEIVPYYALGEFKQRDG | not soluble
15 | PNRLAEAGSRYLRQHSCDPVDWMPWGAEAFEKARRLDKPVFVSVGYSSCHWCHVMQRESFSDPMVAEVLNRAFVMVKVDREERPDVDTLLMRYCAIASGSCGWPLNVLLTPDGKPFYVATYLPKESLVALAVSLERVWRERRAEVLEVAERAGGLLEQHRLAFTPGR | not soluble
16 | PPIHPLTRAKLPDPYLMPVVSWNQSPQPPTTKEDALAKNPNREPIRCVDYHPFGVIGGRDILYGIVWGTRTA | not soluble
17 | PQSAVLHYSGSYGIPATMTFERSGNAYKIVSTIKVPLYNIRFESGGTVVGNTLHPTYYRDIRRGKLYAEAKFADGSVTYGKAGESKTEQSPKAMDLFTLAWQLAANDAKLPPGLKITNGKKLYSVGGLNKAGTGKYSIGGVETEVVKYRVRRGDDAV | not soluble

Row | Sequence | soluble on expression in E. coli
18 | PQTLYQKLVETHTVARLDSQNVLLYADLHIMNEYTSPQAFAGLAEAGRTVLQPGQNVSVVDHIIPTHPVAIRIIEEPNSALQASNLKKNCERHGIPLFDANNRFQGIEHVIAPELGMIRPGMVVLCGDSHTTTYGALGALGFGIGTSEVEHVLATQTLVYRLAPT | not soluble
19 | PREQIIRLHASSGTTGKPTVVGYTANDISNWADLVARSLRAAGLRKGDMIHNAYGYGLFTGGLGAHYGIERLGATVVPMSGGQTEKQVGLITDFKPTGIMVTPSYMLNILEQYHKVGMDPRESSLQVGVFGAEPWTDAMRREVEEAFDMHAVDIYGLSEIMGPGVANECVETKDGPVI | not soluble
20 | PSEIFYQAKVREQKERHARYHDTTYNLEPDIKSTPGGLRDIHTLSWVARRHFGATSLYEMSRFGFLTDAEYRELVECQDFLWRVRFALHIELKRYDNRLTFAHQVQVARHLGYFGEGNRGIEMMMKEFFRTLRRVAELNKMLLKIFDKAILNNGEEAEAVIIDDDFQRRGNMIEARKPALFQARPETILDMFLHMASDSTIESVAPATMRQLRTARRRLN | not soluble
21 | PSKKNGRSGPQPHKRWVFTLNNPSEDERKKIRDLPISLFDYFIVGEEGNEEGRTPHLQGFANFVKKQTFNKVKWYLGARCHIEKAKGTDQQNKEYCSKEGNLLMECGAPRSQGQR | soluble
22 | PTDILEHVLLPVATEDDALATVTALEPYEPEQVTALHVVEKGEGVPDKTPVAQSEEVAAESYAAVRTVFPDADDHTAYSRNVVEAIFHAADEVGASAIAYRSRGGGRLMQFLSGDLSLKLVTNAAIPVIALPRADS | not soluble
23 | PVDFNGYWKMLSNENFEEYLRALDVNVALRKIANLLKPDKEIVQDGDHMIIRTLSTFRNYIMDFQVGKEFEEDLTGIDDRKCMTTVSWDGDKLQCVQKGEKEGRGWTQWIEGDELHLEMRAEGVTCKQVFKKVH | soluble
24 | PVYMVYVSQDRLTPSAKHAVAKAITDAHRGLTGTQHFLAQVNFNEQPAGNVFLGGVQQGGDTIFVHGLHREGRSADLKGQLAQRIVDDVSVAAEIDRKHIWVYFGEMPAQQMVEYGRFLPQPGHEGEWFDNLSSDERAFMETNVDVSRT | soluble
25 | QADTAMIVQISADRKEINLVSIPRDSLVDVPQCETSKGTIPAQYNVMFNSIFAGAYKTGGDLSSAASCTLNAVNSLTGLNIQNFIVVDFAGLVKMIDSVGGVDLCIPQNVNDPYTGLNLDKGMHHLDGVAATQYARIRHGIGDGSDTSRTTRQQYLIKQLMSEALS | not soluble
26 | QDPDGLLGDKKDVGITCALIPADHDGVEIGERHDPLGSAFMNGPTRGEDVFIPMDWLIGGSDYAGKGWRMLVECLSAGRGISLPALGTAIGHLTTRTTGAYAYVRKQFGMSIGKFEGVAEAMGRIGGLTYLLEATRTLTTTSLDMKEKPGIVTAIAKYHMTEIARTILNDSFDIHAGRAIQDGPMNYLAKHYLGIPVAITVEGANILTRNLMIFGQGATRCHPYVLKEMEAAANPDSEQGAKEFDSLLFKH | not soluble
27 | QERFVHVHKMITTGTIEEKIDVMLESKQTLNDQIIQSENWITELSTQELEEL | soluble
28 | QGLVPQGQTQVLQGGNKVPVVNIADPNSGGVSHNKFQQFNVANPGVVFNNGLTDGVSRIGGALTKNPNLTRQASAILAEVTDTSPSRLAGTLEVYGKGADLIIANPNGISVNGLSTLNASNLTLTTGRPSVNGGRIGLDVQQGTVTIERGGVNATGLGYFDVVARLVKLQGAVSSKQGKPLADIAVVAGANRYDHATRRATPIAAGARGAAAGAYAIDGTAAGAMYGKHITLVSSDSGLGVRQLGSLSSPSAITVSSQGEIALGDATVQRGPLSLKGAGVVSAGKLASGGGAVNVAGGGAV | soluble
29 | QGMIMTSDIKLLDYLRVRRSTPALQLSEPGPSKGEIEEILRLAVRVPDHGKLAPWRFVVYRGEERVRLSEAALRIALEKNPDLDLQQQEAERTRFTRAPVVIAVISTAKPHFKIPEWEQVMSAGAVCLNVIFAANASGFAANWLTEWLAFDPAFLAEIGVSAEEKVAGYIHIGSTTFPPVERPRPELADVVTWVGDV | soluble
30 | QGRYTTDDGYIFNASDIIEDTGDAYIVPHGDHYHYIPKNELSASELAAAEAFLSG | soluble
31 | QGTRVTLKVDKEYQQALSRGHSAGHLAYLALNKVLAASYWRKDADRKDPHGNYDFNSYAQEASFVTPDKCLDTYRLGKTLRKRGLNSAEMLSDLEKIEGQVNAQLKFWLERDAAIIMDCHGDNLTDSRYWKCDLGEGELAVIPCGGTHAEHLSDFGSIHVKLVEMDSQTIEMHTDVIACFSN | not soluble
32 | QILSIDPLDISQNLAAVNKSLSDALQHLAQSDTYLSAI | soluble
33 | QITGIETGFYDFDKLITGLHEDQLIVLAARPAMGKTALALNIAQNVATKSNKAVAVFSLEMGAESLVERMLSAEGTIINHHIRTGNLTVNEWQRLIYAQGQLAEAPIFIDDTAGVKITDIRARARRLSQETDGLGLIVIDYLQLIQGSRSDNRQQEVSEISRQLKIIAKELKVPVIALSQLSRGVEQRNDKRPIMSDL | not soluble
